In this data set the target is NS3h (helicase domain of HCV NS3) (Hepatitis C virus, Con 1b replicon …, UniProt Q9WMX2 1192-1657). The experiment in a line: stopped-flow fluorescence.
Sequence of NS3h (helicase domain of HCV NS3) (Q9WMX2 1192-1657): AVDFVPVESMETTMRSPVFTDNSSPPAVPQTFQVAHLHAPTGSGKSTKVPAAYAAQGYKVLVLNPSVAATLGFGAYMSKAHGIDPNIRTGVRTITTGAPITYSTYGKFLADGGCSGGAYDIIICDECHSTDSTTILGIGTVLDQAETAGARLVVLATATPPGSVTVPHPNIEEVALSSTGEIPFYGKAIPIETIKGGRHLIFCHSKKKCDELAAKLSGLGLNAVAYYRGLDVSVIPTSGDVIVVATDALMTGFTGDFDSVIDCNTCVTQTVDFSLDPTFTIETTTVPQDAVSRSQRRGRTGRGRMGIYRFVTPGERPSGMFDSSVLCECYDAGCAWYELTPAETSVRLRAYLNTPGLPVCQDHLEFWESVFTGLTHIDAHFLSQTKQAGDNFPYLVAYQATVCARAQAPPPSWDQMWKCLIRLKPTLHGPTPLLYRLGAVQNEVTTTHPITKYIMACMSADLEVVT

B1: 37:22-mer partial duplex (dsDNA)
DNA 1: GACTGACGCTAGGCTGACAGGATTTTTTTTTTTTTTT
DNA 2: TCCTGTCAGCCTAGCGTCAGTC
In the case of B1, the binding result was “binds”.

Source of the values: article PMC2853022.
